# Biological target: the molecule itself
# Experiment: cryo-EM structure; purified GlyR in asolectin nanodiscs (MSP1E3D1), buffer A (200 mM NaCl, 20 mM HEPES pH 8.0); with or without 32 μM THC and 0, 0.1 or 1 mM glycine; Titan Krios 300 keV, RELION; homopentamer
protein,measurement,value
"zebrafish glycine receptor alpha1 (GlyRα1), full-length, homopentamer in asolectin nanodiscs (receptor, UniProt O93430 25-444, looked up, N-glycans at Asn62, glycine receptor subunit alpha-1, zebrafish, codon-optimized full-length gene (NCBI NP_571477); residues of the models numbered as in UniProt O93430; Phe341-Lys394 (M3-M4 loop, ICD) not modelled in the structures; also called zebrafish homomeric GlyRα1; glycine α1 receptor) ARKAASPMPPSEFLDKLMGKVSGYDARIRPNFKGPPVNVTCNIFINSFGSIAETTMDYRVNIFLRQQWNDPRLAYSEYPDDSLDLDPSMLDSIWKPDLFFANEKGANFHEVTTDNKLLRISKNGNVLYSIRITLVLACPMDLKNFPMDVQTCIMQLESFGYTMNDLIFEWDEKGAVQVADGLTLPQFILKEEKDLRYCTKHYNTGKFTCIEARFHLERQMGYYLIQMYIPSLLIVILSWVSFWINMDAAPARVGLGITTVLTMTTQSSGSRASLPKVSYVKAIDIWMAVCLLFVFSALLEYAAVNFIARQHKELLRFQRRRRHLKEDEAGDGRFSFAAYGMGPACLQAKDGMAIKGNNNNAPTSTNPPEKTVEEMRKLFISRAKRIDTVSRVAFPLVFLIFNIFYWITYKIIRSEDIHKQ",stoichiometry N,5
